Molecular target: V5-FoTO1 (Taxus media)
Assay: co-IP

For “T5αH-HA (from UniProt Q6WG30 1-499) (enzyme)”, the fold change of the co-IP signal with 400 uM taxadiene in the lysate was 4 fold.
